Residue numbers refer to the chain shown, from its start.
T1: Botulinum neurotoxin serotype C (BoNT/C) (Clostridium botulinum, UniProt P18640 2-1291)
T1 sequence: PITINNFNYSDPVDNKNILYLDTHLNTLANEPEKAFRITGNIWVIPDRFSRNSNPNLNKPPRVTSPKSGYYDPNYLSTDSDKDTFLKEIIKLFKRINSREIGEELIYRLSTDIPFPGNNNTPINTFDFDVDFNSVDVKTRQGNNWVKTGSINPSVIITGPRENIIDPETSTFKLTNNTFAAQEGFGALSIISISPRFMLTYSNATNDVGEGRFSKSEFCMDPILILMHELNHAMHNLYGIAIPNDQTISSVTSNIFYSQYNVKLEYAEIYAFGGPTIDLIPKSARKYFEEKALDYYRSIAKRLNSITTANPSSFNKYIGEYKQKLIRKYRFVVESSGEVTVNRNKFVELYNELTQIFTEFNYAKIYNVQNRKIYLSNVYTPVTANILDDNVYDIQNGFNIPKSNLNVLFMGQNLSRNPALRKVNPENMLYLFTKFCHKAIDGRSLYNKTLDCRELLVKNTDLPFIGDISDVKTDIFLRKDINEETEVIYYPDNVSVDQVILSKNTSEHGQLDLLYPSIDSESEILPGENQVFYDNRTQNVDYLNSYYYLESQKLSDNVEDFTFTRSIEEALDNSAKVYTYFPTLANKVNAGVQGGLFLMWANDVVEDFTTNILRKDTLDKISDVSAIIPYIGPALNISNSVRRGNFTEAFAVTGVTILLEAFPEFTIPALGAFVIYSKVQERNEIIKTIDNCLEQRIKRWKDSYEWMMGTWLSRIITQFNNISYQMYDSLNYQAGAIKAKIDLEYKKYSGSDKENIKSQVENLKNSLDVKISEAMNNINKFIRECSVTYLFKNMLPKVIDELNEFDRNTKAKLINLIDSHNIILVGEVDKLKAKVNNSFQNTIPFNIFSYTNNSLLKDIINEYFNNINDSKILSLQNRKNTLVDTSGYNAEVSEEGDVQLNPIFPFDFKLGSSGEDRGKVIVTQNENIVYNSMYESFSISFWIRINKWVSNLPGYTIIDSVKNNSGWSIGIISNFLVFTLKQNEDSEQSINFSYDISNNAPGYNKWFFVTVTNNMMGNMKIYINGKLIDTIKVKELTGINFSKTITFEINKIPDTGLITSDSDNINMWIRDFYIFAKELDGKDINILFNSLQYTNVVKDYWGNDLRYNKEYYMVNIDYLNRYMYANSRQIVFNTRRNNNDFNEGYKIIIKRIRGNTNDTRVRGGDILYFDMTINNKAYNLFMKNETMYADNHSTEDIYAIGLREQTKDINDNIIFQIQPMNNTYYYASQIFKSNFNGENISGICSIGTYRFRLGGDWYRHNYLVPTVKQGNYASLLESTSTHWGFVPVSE

B1: 4C10.5 IgG (antibody, V domains shown)
VH: QVQLVQSGGGVVQPGRSLRLSCGASRFTFSGFDMHWVRQAPGKGLEWVARISHDGSMADYADSLRGRFTISRDNSKNTLYLQMNSLRVEDTALYYCAKDRWRSGSYPAFEIWGQGTMVTVSS
VL: EIVLTQSPSFLSAFVGDRITITCRASQGISNRLAWYQQKPGKAPNLLIHPASTLQSGVPSRFSGSGSGTDFTLTISSLQPEDFATYYCQQANSFPLTFGGGTKVEIKR
B2: 4C10.22 IgG (antibody, V domains shown)
VH: B1 VH with R26G, T28K, R100P
VL: B1 VL with V15I, H49Y
B3: 4C10.17 IgG (antibody, V domains shown)
VH: B1 VH
VL: B1 VL with T53S
B4: 4C10.8 IgG (antibody, V domains shown)
VH: B1 VH with R100P
VL: B1 VL with V15I, H49Y
B5: 4C10.15 IgG (antibody, V domains shown)
VH: B1 VH
VL: B1 VL with Q27K, S30G
B6: 4C10.23 IgG (antibody, V domains shown)
VH: B1 VH with R26G, T28K
VL: B1 VL with Q27K, S30G
B7: 4C10.20 IgG (antibody, V domains shown)
VH: B1 VH with R100P
VL: B1 VL with V15I, S30G, H49Y
B8: 4C10.18 IgG (antibody, V domains shown)
VH: B1 VH with V12A
VL: B1 VL with S30G, N92H, S93R

Columns and labels:
[1] = target: Botulinum neurotoxin mosaic BoNT/DC (Clostridium botulinum); assay: KinExA, IgG
[2] = target: Botulinum neurotoxin mosaic BoNT/DC (Clostridium botulinum); assay: range-finding KinExA, IgG
[3] = target: T1, Botulinum neurotoxin serotype C (BoNT/C); assay: range-finding KinExA, IgG
[4] = target: T1, Botulinum neurotoxin serotype C (BoNT/C); assay: KinExA, IgG

Binder | Kd [1] [nM] | Kd [2] [nM] | Kd [3] [nM] | Kd [4] [nM]
B1 | 0.987 | 0.987 | 0.0651 | 0.0651
B2 | 0.0604 | 0.0604 | 0.00192 | 0.00192
B3 | 0.766 | 0.766 | 0.0325 | 0.0325
B4 | 0.0564 | 0.0564 | 0.0035 | 0.0035
B5 | 0.112 | 0.112 | 0.0122 | 0.0122
B6 | 0.0904 | 0.0904 | 0.00665 | 0.00665
B7 | 0.0166 | 0.0166 | 0.00102 | 0.00102
B8 | 0.109 | 0.109 | 0.0108 | 0.0108

Reference: patent publication US20190256584A1 (University of California, published 2019)
